Values of other authors in publication PMC4712107.
Like-named read-outs stand apart in the source and are kept apart here.

Tests used:
CRF-BP (Homo sapiens) [1] = target: CRF-BP (Homo sapiens) (UniProt P24387)
CRF-BP (Homo sapiens) [2] = target: CRF-BP (Homo sapiens) (UniProt P24387); remark: listed apart in the source

Chain of UniProt P24387 (P24387 25-322): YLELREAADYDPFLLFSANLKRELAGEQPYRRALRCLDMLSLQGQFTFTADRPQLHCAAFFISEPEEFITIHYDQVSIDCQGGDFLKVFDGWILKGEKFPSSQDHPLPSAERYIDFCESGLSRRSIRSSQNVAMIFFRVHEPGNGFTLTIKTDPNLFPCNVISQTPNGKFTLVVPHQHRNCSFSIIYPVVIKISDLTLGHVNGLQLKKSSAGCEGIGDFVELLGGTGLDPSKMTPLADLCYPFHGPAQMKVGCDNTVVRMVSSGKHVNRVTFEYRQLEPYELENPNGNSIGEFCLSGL

Kd (CRF-BP (Homo sapiens) [1]) [nM]	Kd (CRF-BP (Homo sapiens) [2]) [nM]	Substance
< 1		CRF (from UniProt P06850)
	< 1	Urocortin 1 (from UniProt P55089)
